The IC50 is the point on the concentration scale where inhibition reaches its midpoint. Lower therefore signals greater potency.

The values below come from patent US20250051449A1 (SURFACE ONCOLOGY, published 2025).

Assay [1] concerns the target T1, human CD112R expressed on Jurkat cells (human, UniProt Q6DKI7 1-326).
T1 construct: whole, on cells; Used for both Jurkat-CD112R OE cells and wild type Jurkat cells; which cells is said under assay; also called PVRIG; Jurkat-CD112R OE
T1 sequence (looked up): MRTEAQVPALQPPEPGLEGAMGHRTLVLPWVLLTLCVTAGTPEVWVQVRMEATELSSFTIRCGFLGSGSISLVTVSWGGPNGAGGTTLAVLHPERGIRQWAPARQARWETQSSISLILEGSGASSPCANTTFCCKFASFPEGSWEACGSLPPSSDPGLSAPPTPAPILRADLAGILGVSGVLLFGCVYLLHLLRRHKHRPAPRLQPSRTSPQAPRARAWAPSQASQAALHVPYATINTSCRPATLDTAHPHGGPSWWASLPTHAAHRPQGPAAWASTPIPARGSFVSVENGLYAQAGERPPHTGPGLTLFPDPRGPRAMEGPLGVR
Kind of assay: flow cytometry competition on Jurkat-CD112R OE cells; competitor biotinylated his-tagged human CD112. As to the method:
The ability of anti-CD112R antibodies to block CD112 binding to CD112R expressing cells was evaluated. 1×10⁵ Jurkat cells (acute T cell leukemia cell line, ATCC #TIB-152) that were engineered to over-express human CD112R (Jurkat-CD112R OE) were added to each well of a 96-well V bottom plate and stained with serial dilutions of either anti-CD112R antibodies or an IgG1 isotype control (highest concentration, 10 μg/mL) for 1 hour at 4° C. Cells were washed twice with PBS+2% FCS and resuspended with biotinylated his-tagged human CD112 (3 μg/mL) (BPS Bioscience, #71234) and PE Streptavidin (5 μg/mL) (Biolegend, #405204) in PBS+2% FCS and incubated at 2 hours at 4° C. Cells were subsequently washed twice and resuspended in PBS+2% FCS. Cellular data was acquired using a LSRFortessa X-20 (BD Biosciences) and analyzed with FlowJo software (Tree Star).
Results are depicted in FIG. 2A and Table 2. […] Percent inhibition was calculated as [100−((test sample MFI/Max MFI)*100%)]
A general note: Flow cytometry measures light scatter and fluorescence of single cells or particles in a stream.

In assay [2] the target is T2, mouse CD112R-hIgG4 fusion protein (mouse; human).
T2 construct: also called soluble mouse CD112R; soluble murine CD112R
Kind of assay: blocking ELISA: coated mouse CD112, antibody plus mouse CD112R-hIgG4 (2 ug/mL). As to the method:
The ability of species cross reactive anti-CD112R antibodies to block mouse CD112R binding to mouse CD112 was evaluated by ELISA. Briefly. 96 well Nunc Maxisorp plates were coated with 1 μg/mL of mouse CD112 (Sino Biological. Cat #50318-M08H) in PBS overnight at 4° C. […] After blocking, plates were washed 6× with PBST. Next. 50 μL of anti-CD112R antibodies or isotype control (Biolegend. Cat #403502) in PBS+1% BSA were added at a final starting concentration of 40 μg/mL, with 2-fold serial dilutions. 50 μL of a mouse CD112R-hIgG4 fusion protein was also added to each well at a final concentration of 2 μg/mL. Plates were incubated at room temperature for 1.5 hours. Next plates were washed 6× with PBST and then incubated with anti-IgG4 HRP (Thermo Fisher, Cat #MA1-33437) in 100 μL for 1 hour at room temperature. Plates were then washed 6× with PBST and developed with TMB substrate (Life Technologies. Cat #002023). The reaction was stopped with an equal volume of stop solution (Life Technologies. Cat #SS04). Absorbance at 450 nm (O.D. 450) was measured on a SpectraMax plate reader.
Results are depicted in FIG. 19 and Table 11. […] Percent inhibition was calculated as [100−((test sample O.D. 450/Max O.D. 450)*100%)] Max O.D. 450 was defined as absorbance at 450 nm in the absence of antibody.
A general note: ELISA stands for enzyme-linked immunosorbent assay.

In assay [3] the target is T1, human CD112R expressed on Jurkat cells. In words: flow cytometry, Jurkat cells over-expressing human CD112R, 0.63 ug/mL antibody. As to the method:
The ability of anti-CD112R antibodies to bind to CD112R expressed on cells was evaluated. 1×10⁵ Jurkat cells (acute T cell leukemia cell line, ATCC #TIB-152) that were either wild type or engineered to over-express human CD112R (Jurkat-CD112R OE) were added to each well of a 96-well V bottom plate and stained with either anti-CD112R antibodies or an IgG1 isotype control (0.63 μg/mL) for 1 hour at 4° C. Cells were washed twice with PBS+2% FCS and resuspended with Alexa Fluor® 647 anti-human IgG Fc antibody (Biolegend, Cat #409320) diluted 1:100 in PBS+2% FCS and incubated at 4° C. for 30 minutes. Cells were subsequently washed twice and resuspended in PBS+2% FCS. Cellular data was acquired using a LSRFortessa X-20 (BD Biosciences) and analyzed with FlowJo software (Tree Star).
Results are depicted in FIG. 1. Quantitation of antibody binding to Jurkat-CD112R OE cells was assessed by the geometric mean fluorescent intensity (gMFI) of the Alexa Fluor® 647 signal.

For assay [4], the target named is T3, mouse CD112R overexpressed on 293T cells (mouse).
T3 construct: whole, on cells; also called 293T.mCD112R; 293T-mouse CD112R
Kind of assay: flow cytometry, 293T cells overexpressing mouse CD112R. As to the method:
The ability of anti-CD112R antibodies to bind to mouse CD112R was evaluated on cells overexpressing mouse CD112R. 0.8×10⁵ 293T cells (ATCC CRL-3216) that were engineered to overexpress mouse CD112R (293T.mCD112R) were added to each well of a 96-well V bottom plate and stained with either anti-CD112R antibodies or an IgG1 isotype control at a starting concentration of 10 μg/mL, with 3-fold serial dilutions for 30 minutes at 4° C. Cells were washed twice with PBS+2% FCS and resuspended with Alexa Fluor® 647 anti-human IgG Fc antibody (Biolegend, Cat #409320) diluted 1:100 in PBS+2% FCS and incubated at 4° C. for 20 minutes. Cells were subsequently washed twice and resuspended in PBS+2% FCS. Cellular data was acquired using a LSRFortessa X-20 (BD Biosciences) and analyzed with FlowJo software (Tree Star).
Results are depicted in FIG. 17 and Table 11. Quantitation of antibody binding to 293T.mCD112R cells was assessed by the geometric mean fluorescent intensity (gMFI) of the Alexa Fluor® 647 signal.

Numbering of substitutions follows the chain as printed.

B1: Antibody 46 (antibody, V domains shown)
VH: EVQLVESGGGLVQPGRSLRLSCTASGFTFGDYAMSWFRQAPGKGLEWVGFIGSKAYGGTTEYTASVKGRFTISRDGSKSIAYLQMNSLKTEDTAVYYCARGPRRYTYGMDVWGQGTTVTVSS
VL: DIQMTQSPSSLSASVGDRVTITCRASQSISSYLNWYQQKPGKAPKLLIYAASSLQSGVPSRFSGSGSGTDFTLTISSLQPEDFATYYCQQSSTPLTFGGGTKVEIK
notes: in the mouse tumor studies it was used as mouse IgG2a; also called antibody clone number 46; clone 46
As to B1, in assay [1], the “CD112 blocking max inhibition (%)” value was found to be 95.5% and the IC50 came out at 0.0162 µg/mL. The “mouse CD112/CD112R blocking ELISA max inhibition (%)” value in assay [2] turned out to be 88%. In addition, the “gMFI (fold increase over isotype)” value in assay [3] was 23.8 fold increase over isotype. Besides, in assay [4], the “gMFI (fold increase over isotype)” value is 74.8 fold increase over isotype.

B2: Antibody 32 (antibody, V domains shown)
VH: QVQLVQSGAEVKKPGSSVKVSCKASGGTFSSYAISWVRQAPGQGLEWMGGIIPISGTANYAQKFQGRVTITADESTSTAYMELSSLRSEDTAVYYCARDTGRGYTRHFWFDPWGQGTLVTVSS
VL: B1 VL with S92D, T93I, P94L, L95Y
notes: Purified as IgG; compared with an IgG1 isotype control and detected with anti-human IgG Fc; also called antibody clone number 32; parent clone 32
With B2, in assay [1], the “CD112 blocking max inhibition (%)” value is 96% and the IC50 is 0.0236 µg/mL. In assay [2], the “mouse CD112/CD112R blocking ELISA max inhibition (%)” value worked out at 0%. Moreover, the “gMFI (fold increase over isotype)” value in assay [3] is 27.9 fold increase over isotype. Moreover, the “gMFI (fold increase over isotype)” value in assay [4] was 14.9 fold increase over isotype.

B3: Antibody 35 (antibody, V domains shown)
VH: B2 VH with Y32A, G50N, S55V, T57I
VL: B1 VL with S92D, T93I, P94L, L95Y
notes: Purified as IgG; compared with an IgG1 isotype control and detected with anti-human IgG Fc; also called antibody clone number 35; clone 35
Consider B3, for which, in assay [1], the “CD112 blocking max inhibition (%)” value was found to be 97.4%. The molecule further gave an IC50 in assay [1] of 0.0162 µg/mL. For the same molecule, the “mouse CD112/CD112R blocking ELISA max inhibition (%)” value in assay [2] stood at 24.2%. The “gMFI (fold increase over isotype)” value is 32.1 fold increase over isotype in assay [3] and 55.6 fold increase over isotype in assay [4].

B4: Antibody 36 (antibody, V domains shown)
VH: B2 VH with S30A, S31T, I52F, I54L
VL: B1 VL with S92D, T93I, P94L, L95Y
notes: Purified as IgG; compared with an IgG1 isotype control and detected with anti-human IgG Fc; also called antibody clone number 36; clone 36
For B4, in assay [1], the “CD112 blocking max inhibition (%)” value was 97.5% and the IC50 was found to be 0.0244 µg/mL. For the same molecule, the “mouse CD112/CD112R blocking ELISA max inhibition (%)” value in assay [2] was found to be 41.6%. In addition, the “gMFI (fold increase over isotype)” value in assay [3] is 31 fold increase over isotype. The “gMFI (fold increase over isotype)” value in assay [4] was 76.3 fold increase over isotype.

B5: Antibody 58 (antibody, V domains shown)
VH: B1 VH with A55F, T59E
VL: B1 VL
notes: Purified as IgG; compared with an IgG1 isotype control and detected with anti-human IgG Fc; also called antibody clone number 58; clone 58
Turning to B5, in assay [1], the “CD112 blocking max inhibition (%)” value came to 96.3% and the IC50 came to 0.0028 µg/mL. For the same molecule, the “mouse CD112/CD112R blocking ELISA max inhibition (%)” value in assay [2] came out at 85.7%. For the same molecule, in assay [3], the “gMFI (fold increase over isotype)” value was 37.3 fold increase over isotype. Moreover, the “gMFI (fold increase over isotype)” value in assay [4] was 79.4 fold increase over isotype.

B6: Antibody 33 (antibody, V domains shown)
VH: B2 VH with S30G, S31N, S55P, T57I
VL: B1 VL with S92D, T93I, P94L, L95Y
notes: Purified as IgG; compared with an IgG1 isotype control and detected with anti-human IgG Fc; also called antibody clone number 33; clone 33
As to B6, the “CD112 blocking max inhibition (%)” value in assay [1] turned out to be 97.4%. This molecule had an IC50 in assay [1] of 0.0219 µg/mL. In assay [2], the “mouse CD112/CD112R blocking ELISA max inhibition (%)” value was 28.3%. Also, the “gMFI (fold increase over isotype)” value in assay [3] is 34.2 fold increase over isotype; in assay [4], 73.3 fold increase over isotype.

B7: Antibody 34 (antibody, V domains shown)
VH: B2 VH with Y32A, I52F, T57H
VL: B1 VL with S92D, T93I, P94L, L95Y
notes: Purified as IgG; compared with an IgG1 isotype control and detected with anti-human IgG Fc; also called antibody clone number 34; clone 34
For B7, in assay [1], the “CD112 blocking max inhibition (%)” value worked out at 96.9%. In addition, the half-maximal inhibitory concentration (IC50) in assay [1] was 0.0132 µg/mL. For the same molecule, the “mouse CD112/CD112R blocking ELISA max inhibition (%)” value in assay [2] turned out to be 20.3%. In addition, the results for the “gMFI (fold increase over isotype)” value in assay [3] and in assay [4] were 33.8 fold increase over isotype and 72.2 fold increase over isotype, respectively.
